# T1: soluble human IL-6R (human, UniProt P08887 20-357)
# T1 construct: Analyte in the Octet experiments; also called hIL-6R; soluble hIL-6R
# T1 sequence: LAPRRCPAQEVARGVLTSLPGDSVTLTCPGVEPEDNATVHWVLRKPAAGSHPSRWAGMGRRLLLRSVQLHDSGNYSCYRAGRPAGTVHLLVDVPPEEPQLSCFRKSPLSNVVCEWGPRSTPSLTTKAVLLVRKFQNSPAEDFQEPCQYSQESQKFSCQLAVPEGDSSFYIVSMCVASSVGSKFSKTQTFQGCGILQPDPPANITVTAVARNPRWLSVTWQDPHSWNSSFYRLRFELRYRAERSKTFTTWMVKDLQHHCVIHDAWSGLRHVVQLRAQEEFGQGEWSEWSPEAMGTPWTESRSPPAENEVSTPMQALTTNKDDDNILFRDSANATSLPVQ
# T2: mouse IgA (mouse, UniProt P01878 114-344)
# T2 sequence (looked up): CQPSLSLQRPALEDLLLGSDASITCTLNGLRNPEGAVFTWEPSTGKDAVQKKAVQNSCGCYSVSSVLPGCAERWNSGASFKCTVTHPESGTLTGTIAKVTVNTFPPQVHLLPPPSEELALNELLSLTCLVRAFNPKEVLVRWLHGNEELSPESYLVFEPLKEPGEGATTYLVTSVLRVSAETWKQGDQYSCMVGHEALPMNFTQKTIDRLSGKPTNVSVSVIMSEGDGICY
# How the values were obtained:
# [1] = target: T1, soluble human IL-6R; experiment: biolayer interferometry (Octet RED384), antibody on Protein G biosensor, soluble human IL-6R in solution, 120 s association and 120 s dissociation [a]
# Procedure: (§1) The binding evaluation was conducted using HBS-EP+Buffer (GE Healthcare Japan Corp.) as a buffer.
# (§2) After binding of the antibody to Protein G Biosensors (forteBIO), soluble human IL-6R or soluble human plexin A1 was allowed to interact with the antibody on the biosensor through contact therebetween for 120 seconds, and subsequently contacted with the buffer for 120 seconds to measure the antibody-antigen interaction. Then, the biosensor was regenerated through contact with 10 mmol/L glycine-HCl (pH 1.5). The measurement was conducted at 30° C.
# [2] = target: T3, soluble human plexin A1 (human, UniProt Q9UIW2 27-1244); experiment: biolayer interferometry (Octet RED384), antibody on Protein G biosensor, soluble human plexin A1 in solution; antigen concentration not given [a]
# T3 construct: also called hPlexin A1; human Plexin A1 extracellular region
# Procedure: as §1, §2
# [3] = target: T1, soluble human IL-6R; experiment: biolayer interferometry (Octet RED384), antibody on Protein G biosensor, soluble human IL-6R in solution; antigen concentration not given [b]
# Procedure: as §1, §2
# [4] = target: T3, soluble human plexin A1; experiment: biolayer interferometry (Octet RED384), antibody on Protein G biosensor, soluble human plexin A1 in solution, 120 s association and 120 s dissociation [b]
# Procedure: as §1, §2
# [5] = target: T2, mouse IgA; experiment: biolayer interferometry (Octet RED384), antibody on Protein G biosensor, mouse IgA in solution; antigen concentration not given [a]
# Procedure: (§3) Each antibody (6RmIAB3(2)_02, 6RmIAB3(2)_06, and 6RmIAB3(2)_16) obtained in the paragraph (6-2) or an anti-mouse IgA antibody mIANMIgL_095 (heavy chain: SEQ ID NO: 41; light chain: SEQ ID NO: 65) was evaluated for its binding activity against soluble human IL-6R and mouse IgA using Octet RED384 (forteBIO). The binding evaluation was conducted using HBS-EP+Buffer (GE Healthcare Japan Corp.) as a buffer.
# as §2, with “mouse IgA” for “soluble human plexin A1”
# [6] = target: T1, soluble human IL-6R; experiment: biolayer interferometry (Octet RED384), antibody on Protein G biosensor, soluble human IL-6R in solution, 120 s association and 120 s dissociation [a]; remark: listed apart in the source
# Procedure: as §3
# as §2, with “mouse IgA” for “soluble human plexin A1”
# [7] = target: T2, mouse IgA; experiment: biolayer interferometry (Octet RED384), antibody on Protein G biosensor, mouse IgA in solution; antigen concentration not given [b]
# Procedure: as §3
# as §2, with “mouse IgA” for “soluble human plexin A1”
# [8] = target: T1, soluble human IL-6R; experiment: biolayer interferometry (Octet RED384), antibody on Protein G biosensor, soluble human IL-6R in solution, 120 s association and 120 s dissociation [b]
# Procedure: as §3
# as §2, with “mouse IgA” for “soluble human plexin A1”
# [9] = target: T1, soluble human IL-6R; experiment: biolayer interferometry (Octet RED384), antibody on Protein G biosensor, soluble human IL-6R in solution, 120 s association and 120 s dissociation [a]; remark: listed apart in the source
# Procedure: (§4) The antibody (6RhCEB3(2)_10) obtained in the paragraph (6-2) or an anti-CD3 antibody hCE115HA/L0000 (heavy chain: SEQ ID NO: 42; light chain: SEQ ID NO: 66) was evaluated for its binding activity against soluble human IL-6R and human CD3e (hCD3e) using Octet RED384 (forteBIO). The binding evaluation was conducted using HBS-EP+Buffer (GE Healthcare Japan Corp.) as a buffer.
# as §2, with “or” for “or soluble”, “CD3e” for “plexin A1”
# [10] = target: T4, human CD3e (hCD3e) extracellular region with FLAG tag (human, UniProt P07766 22-129); experiment: biolayer interferometry (Octet RED384), antibody on Protein G biosensor, human CD3e in solution; antigen concentration not given [a]
# Procedure: as §4
# as §2, with “or” for “or soluble”, “CD3e” for “plexin A1”
# [11] = target: T4, human CD3e (hCD3e) extracellular region …; experiment: biolayer interferometry (Octet RED384), antibody on Protein G biosensor, human CD3e in solution, 120 s association and 120 s dissociation [b]
# Procedure: as §4
# as §2, with “or” for “or soluble”, “CD3e” for “plexin A1”
# [12] = target: T1, soluble human IL-6R; experiment: biolayer interferometry (Octet RED384), antibody on Protein G biosensor, soluble human IL-6R in solution; antigen concentration not given [b]; remark: listed apart in the source
# Procedure: as §4
# as §2, with “or” for “or soluble”, “CD3e” for “plexin A1”
# [13] = target: T1, soluble human IL-6R; experiment: biolayer interferometry (Octet RED384), antibody on Protein G biosensor, soluble human IL-6R in solution, 120 s association and 120 s dissociation [a]; remark: listed apart in the source
# Procedure: (§5) Each antibody (6RNH-2_02, 6RNH-2_37, 6RNH-3(2)_32, and 6RNH-2_42) obtained in the paragraph (4-1) was evaluated for its binding activity against soluble human IL-6R using Octet RED384 (forteBIO). The binding evaluation was conducted using HBS-EP+ Buffer (GE Healthcare Japan Corp.) as a buffer.
# as §2, with “IL-6R” for “IL-6R or soluble human plexin A1”
# [14] = target: T1, soluble human IL-6R; experiment: biolayer interferometry (Octet RED384), antibody on Protein G biosensor, soluble human IL-6R in solution, 120 s association and 120 s dissociation [b]; remark: listed apart in the source
# Procedure: as §5
# as §2, with “IL-6R” for “IL-6R or soluble human plexin A1”
# [15] = target: T1, soluble human IL-6R; experiment: biolayer interferometry (Octet RED384), antibody on Protein G biosensor, soluble human IL-6R in solution, 120 s association and 120 s dissociation [c]
# Procedure: as §5
# as §2, with “IL-6R” for “IL-6R or soluble human plexin A1”
# [16] = target: T1, soluble human IL-6R; experiment: biolayer interferometry (Octet RED384), antibody on Protein G biosensor, soluble human IL-6R in solution; antigen concentration not given [d]
# Procedure: as §3
# as §2, with “mouse IgA” for “soluble human plexin A1”
# T3 sequence (Q9UIW2 other isoform, or with tags, fused parts or gaps): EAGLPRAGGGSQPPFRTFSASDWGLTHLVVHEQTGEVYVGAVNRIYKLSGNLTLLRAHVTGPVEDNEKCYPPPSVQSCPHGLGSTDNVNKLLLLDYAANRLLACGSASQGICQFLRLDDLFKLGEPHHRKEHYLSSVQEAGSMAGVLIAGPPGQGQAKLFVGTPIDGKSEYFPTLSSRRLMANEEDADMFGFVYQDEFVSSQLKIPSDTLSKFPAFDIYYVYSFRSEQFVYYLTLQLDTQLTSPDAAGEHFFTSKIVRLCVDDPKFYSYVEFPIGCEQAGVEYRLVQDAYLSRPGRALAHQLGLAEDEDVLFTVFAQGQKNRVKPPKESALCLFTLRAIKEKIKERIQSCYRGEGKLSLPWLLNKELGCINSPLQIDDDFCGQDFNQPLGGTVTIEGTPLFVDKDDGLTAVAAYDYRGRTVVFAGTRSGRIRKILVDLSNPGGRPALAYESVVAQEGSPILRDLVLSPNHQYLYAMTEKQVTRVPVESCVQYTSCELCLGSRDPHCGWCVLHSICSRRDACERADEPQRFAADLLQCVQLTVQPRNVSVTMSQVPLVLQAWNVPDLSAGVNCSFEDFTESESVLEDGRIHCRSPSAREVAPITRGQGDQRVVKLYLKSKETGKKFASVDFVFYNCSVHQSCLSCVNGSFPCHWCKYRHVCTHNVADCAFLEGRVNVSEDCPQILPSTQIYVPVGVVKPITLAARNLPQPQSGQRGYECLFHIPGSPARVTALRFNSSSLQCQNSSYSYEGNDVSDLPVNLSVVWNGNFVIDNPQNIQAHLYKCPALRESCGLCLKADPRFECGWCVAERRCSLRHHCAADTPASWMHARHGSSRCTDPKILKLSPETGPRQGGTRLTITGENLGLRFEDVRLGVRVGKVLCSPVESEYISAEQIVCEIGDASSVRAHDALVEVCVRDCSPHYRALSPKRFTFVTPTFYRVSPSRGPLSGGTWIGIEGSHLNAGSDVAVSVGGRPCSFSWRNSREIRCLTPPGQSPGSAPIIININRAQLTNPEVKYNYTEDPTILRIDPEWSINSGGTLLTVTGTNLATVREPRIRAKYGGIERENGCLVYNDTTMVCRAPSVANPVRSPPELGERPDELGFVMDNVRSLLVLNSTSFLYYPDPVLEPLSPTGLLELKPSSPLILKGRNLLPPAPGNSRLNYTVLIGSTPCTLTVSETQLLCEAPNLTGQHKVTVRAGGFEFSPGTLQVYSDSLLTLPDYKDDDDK
# T4 sequence (P07766 other isoform, or with tags, fused parts or gaps): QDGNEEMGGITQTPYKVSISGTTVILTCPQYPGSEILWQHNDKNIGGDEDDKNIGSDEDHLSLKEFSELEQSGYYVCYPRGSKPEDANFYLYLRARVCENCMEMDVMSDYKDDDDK
binder,measurement,setting,value
"6RPAB3_03 (antibody, human IgG1, kappa, V domains shown) VH: EVQLVESGGGLVQPGGSLRLSCATSGFTFSSYEMNWVRQAPGKGLEWVSYIDRSGSTIYYADSVKGRFTISRDNAKNSLYLQMNSLRAEDTAVYYCAGEWWQGDSWGQGTTVTVSS VL: not shown",binding result,[1],binds
same,binding result,[2],no binding
"hPANKB2-3#135 (antibody, human IgG1, kappa, V domains shown) VH: EVQLVQSGAEVKKPGASVKVSCKASGYTFTSYGISWVRQAPGQGLEWMGWISAYNGNTNYAQKLQGRVTMTTDTSTSTAYMELRSLRSDDTAVYYCARGGRGGDAFDIWGQGTMVTVSS VL: not shown",binding result,[3],no binding
same,binding result,[4],binds
"6RmIAB3(2)_02 (antibody, human IgG1, lambda, V domains shown, IgG with the L chain of the anti-mouse IgA antibody mIANMIgL_095; Culture supernatant was recovered; no purification is described) VH: QVQLQESGPGLVKPSGTLSLTCAVSGGSISSSDWWSWVRQPPGKGLEWIGEIYHGGSTNYNPSLKSRVTISVDRSKNQFSLNLSSVTAADTAVYYCARAPRGSYRIDYWGQGTLVTVSS VL: SYELTQPPSVSVSPGQSASITCSGDKLGDRFVTWYQQKPGQSPVLVMYQDNQRPSGIPERFSGSNSGNTATLTITGTPAMDEADYYCQTWDAGTGVVFGGGTKLTVLS",binding result,[5],no binding
same,binding result,[6],binds
"6RmIAB3(2)_06 (antibody, human IgG1, lambda, V domains shown, IgG with the L chain of the anti-mouse IgA antibody mIANMIgL_095; Culture supernatant was recovered) VH: QVQLVQSGAEVKKPGASVKVSCKASGYTFATSGISWVRQAPGQGLEWLGWISPYNSRTNSAQKLQGRVNMTTDTSTNTAYLELRSLTSDDTAVYYCARANGDYRNWFDPWGQGTLVTVSS VL: SYELTQPPSVSVSPGQSASITCSGDKLGDRFVTWYQQKPGQSPVLVMYQDNQRPSGIPERFSGSNSGNTATLTITGTPAMDEADYYCQTWDAGTGVVFGGGTKLTVLS",binding result,[7],no binding
same,binding result,[8],binds
"6RhCEB3(2)_10 (antibody, human IgG1, kappa, V domains shown, IgG with the L chain of the humanized anti-CD3 antibody CE115) VH: QVQLVQSGAEVKKPGSSVKVSCKASGGTFSSYAISWVRQAPGQGLEWMGGIIPIFGTANYAQKFQGRVTITADESTSTAYMELSSLRSEDTAVYYCARDHYDILTGYPDPTYYYYGMDVWGQGTMVTVSS VL: DIVMTQSPLSLPVTPGEPASISCRSSQSLVHSNRNTYLHWYQQKPGQAPRLLIYKVSNRFSGVPDRFSGSGSGTDFTLKISRVEAEDVGVYYCGQGTQVPYTFGQGTKLEIKR",binding result,[9],binds
same,binding result,[10],no binding
"hCE115HA/L0000 (antibody, human IgG1, kappa, V domains shown, also called anti-CD3 antibody hCE115HA/L0000; humanized anti-human CD3 antibody CE115) VH: QVQLVESGGGVVQPGRSLRLSCAASGFTFSNAWMHWVRQAPGKGLEWVAQIKAKSNNYATYYAESVKGRFTISRDDSKNSLYLQMNSLKTEDTAVYYCRYVHYGAYYGVDAWGQGTTVTVSS VL: DIVMTQSPLSLPVTPGEPASISCRSSQSLVHSNRNTYLHWYQQKPGQAPRLLIYKVSNRFSGVPDRFSGSGSGTDFTLKISRVEAEDVGVYYCGQGTQVPYTFGQGTKLEIKR",binding result,[11],binds
same,binding result,[12],no binding
"6RNH-2_02 (antibody, human IgG1, kappa, V domains shown, IgG with the PF1 L chain, purified on Protein A) VH: QVQLVETGGGMVQPGGSLRLSCAASGFMFSTYAMSWVRQASGKGLEWVSLISGTGSVTKYADSVKGRFTISRDNSKNMVYLQMNNLGADDTAVYYCANSDYGDYARFDHWGQGTLVTVSS VL: DIQMTQSPSSLSASVGDSVTITCQASQDISSYLNWYQQKPGKAPELLIYYGSELHSGVPSRFSGSGSGTDFTFTISSLEAEDAATYYCGQGNRLPYTFGQGTKVEIER",binding result,[13],binds
"6RNH-2_37 (antibody, human IgG1, kappa, V domains shown, IgG with the PF1 L chain) VH: QVQLQESGPGLVRPSQTLSLTCTVSGYSITSDHAWSWVRQPPGRGLEWIGYISYSGITTYNPSLKSRVTMLRDTSKNQFSLRLSSVTAADTAVYYCARSLARTTAMDYWGQGTLVTVSS VL: DIQMTQSPSSLSASVGDSVTITCQASQDISSYLNWYQQKPGKAPELLIYYGSELHSGVPSRFSGSGSGTDFTFTISSLEAEDAATYYCGQGNRLPYTFGQGTKVEIER",binding result,[14],binds
"6RNH-3(2)_32 (antibody, human IgG1, kappa, V domains shown, IgG with the PF1 L chain) VH: QVQLQESGPGLVKPSETLSLTCAVSGYSISHDHAWSWVRQPPGEGLEWIGHISYSGITNYNPHLQDRVTISRDTSKNQFSLKLSSVTAADTAVYYCARFLARITAHDHWGEGTLVTVSS VL: DIQMTQSPSSLSASVGDSVTITCQASQDISSYLNWYQQKPGKAPELLIYYGSELHSGVPSRFSGSGSGTDFTFTISSLEAEDAATYYCGQGNRLPYTFGQGTKVEIER",binding result,[15],binds
"mIANMIgL_095 (antibody, human IgG1, lambda, V domains shown, also called anti-mouse IgA antibody mIANMIgL_095) VH: not shown VL: SYELTQPPSVSVSPGQSASITCSGDKLGDRFVTWYQQKPGQSPVLVMYQDNQRPSGIPERFSGSNSGNTATLTITGTPAMDEADYYCQTWDAGTGVVFGGGTKLTVLS",binding result,[16],no binding

# Reference: patent publication US20160264960A1 (Chugai, published 2016)
